The text below walks through data of article PMC12990809.

What all share (assay): pulldown
Series [1] has as its target T1, pab-1 (Caenorhabditis elegans) (UniProt Q9U302).
T1 sequence: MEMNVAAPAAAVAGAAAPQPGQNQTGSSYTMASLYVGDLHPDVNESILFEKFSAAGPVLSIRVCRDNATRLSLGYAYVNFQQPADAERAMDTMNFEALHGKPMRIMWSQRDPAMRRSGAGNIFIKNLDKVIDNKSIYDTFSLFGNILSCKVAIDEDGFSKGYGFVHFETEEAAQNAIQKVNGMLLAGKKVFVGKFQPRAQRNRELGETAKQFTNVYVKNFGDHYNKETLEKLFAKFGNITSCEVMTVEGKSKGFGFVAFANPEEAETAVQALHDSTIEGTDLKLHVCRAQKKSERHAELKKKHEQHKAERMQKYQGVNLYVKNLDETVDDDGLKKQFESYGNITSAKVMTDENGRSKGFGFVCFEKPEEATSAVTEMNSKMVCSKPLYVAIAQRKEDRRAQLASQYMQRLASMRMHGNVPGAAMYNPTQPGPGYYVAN
The conditions noted are these: 20 nM protein, 1.5 uM RNA pool; 20 mM HEPES pH 7.8, 70 mM KCl, 10 mM NaCl, 10% glycerol, 2 mM DTT, 0.1 ug/uL BSA; 30 min, 4 C.

The target in series [2] is T2, Smp_024140 (Schistosoma mansoni) (UniProt G4VQ61).
T2 sequence: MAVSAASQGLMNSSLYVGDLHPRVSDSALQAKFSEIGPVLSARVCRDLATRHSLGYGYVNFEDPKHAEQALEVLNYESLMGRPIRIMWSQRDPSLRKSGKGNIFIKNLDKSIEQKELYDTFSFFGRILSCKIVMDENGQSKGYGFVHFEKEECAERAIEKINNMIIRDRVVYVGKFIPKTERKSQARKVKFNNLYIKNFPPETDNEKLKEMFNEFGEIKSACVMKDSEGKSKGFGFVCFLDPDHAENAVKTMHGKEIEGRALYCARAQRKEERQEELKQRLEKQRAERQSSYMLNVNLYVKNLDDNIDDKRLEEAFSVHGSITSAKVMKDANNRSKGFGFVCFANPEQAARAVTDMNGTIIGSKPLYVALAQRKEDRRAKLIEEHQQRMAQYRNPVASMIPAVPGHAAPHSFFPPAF
The conditions noted are these: 20 nM protein, 1.5 uM RNA pool; 20 mM HEPES pH 7.8, 70 mM KCl, 10 mM NaCl, 10% glycerol, 2 mM DTT, 0.1 ug/uL BSA; 30 min, 4 C.

Series [3] addresses T3, pabpc1A (Dictyostelium discoideum) (UniProt Q54BM2).
T3 sequence: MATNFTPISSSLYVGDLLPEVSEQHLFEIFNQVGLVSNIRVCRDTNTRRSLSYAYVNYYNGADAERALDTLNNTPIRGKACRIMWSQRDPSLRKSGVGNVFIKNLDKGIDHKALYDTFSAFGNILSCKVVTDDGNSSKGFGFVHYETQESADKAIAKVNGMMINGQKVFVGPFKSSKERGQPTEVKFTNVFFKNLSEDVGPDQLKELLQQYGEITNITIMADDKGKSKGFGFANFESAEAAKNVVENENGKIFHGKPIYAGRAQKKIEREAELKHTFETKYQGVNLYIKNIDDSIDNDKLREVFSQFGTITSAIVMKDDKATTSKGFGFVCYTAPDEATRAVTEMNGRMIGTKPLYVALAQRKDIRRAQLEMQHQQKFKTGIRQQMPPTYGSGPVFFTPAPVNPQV
As to conditions: 20 nM protein, 1.5 uM RNA pool; 20 mM HEPES pH 7.8, 70 mM KCl, 10 mM NaCl, 10% glycerol, 2 mM DTT, 0.1 ug/uL BSA; 30 min, 4 C.

For series [4], the target named is pabpc4 (Xenopus tropicalis) (UniProt A0A8J0QFT8). As to conditions: 20 nM protein, 1.5 uM RNA pool; 20 mM HEPES pH 7.8, 70 mM KCl, 10 mM NaCl, 10% glycerol, 2 mM DTT, 0.1 ug/uL BSA; 30 min, 4 C.
Sequence of pabpc4 (Xenopus tropicalis) (A0A8J0QFT8 entry or part of it): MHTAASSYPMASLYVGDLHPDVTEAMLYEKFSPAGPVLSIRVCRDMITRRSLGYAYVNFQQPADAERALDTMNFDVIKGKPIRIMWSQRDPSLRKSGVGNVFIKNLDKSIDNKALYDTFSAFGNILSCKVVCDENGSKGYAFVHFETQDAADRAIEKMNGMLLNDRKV
Series [5] has as its target fmr1 (Xenopus tropicalis) (UniProt Q6GLC9). The conditions noted are these: 20 nM protein, 1.5 uM RNA pool; 20 mM HEPES pH 7.8, 70 mM KCl, 10 mM NaCl, 10% glycerol, 2 mM DTT, 0.1 ug/uL BSA; 30 min, 4 C.
Series [6] addresses T4, HNRNPL C396G (Homo sapiens) (UniProt P14866).
T4 sequence: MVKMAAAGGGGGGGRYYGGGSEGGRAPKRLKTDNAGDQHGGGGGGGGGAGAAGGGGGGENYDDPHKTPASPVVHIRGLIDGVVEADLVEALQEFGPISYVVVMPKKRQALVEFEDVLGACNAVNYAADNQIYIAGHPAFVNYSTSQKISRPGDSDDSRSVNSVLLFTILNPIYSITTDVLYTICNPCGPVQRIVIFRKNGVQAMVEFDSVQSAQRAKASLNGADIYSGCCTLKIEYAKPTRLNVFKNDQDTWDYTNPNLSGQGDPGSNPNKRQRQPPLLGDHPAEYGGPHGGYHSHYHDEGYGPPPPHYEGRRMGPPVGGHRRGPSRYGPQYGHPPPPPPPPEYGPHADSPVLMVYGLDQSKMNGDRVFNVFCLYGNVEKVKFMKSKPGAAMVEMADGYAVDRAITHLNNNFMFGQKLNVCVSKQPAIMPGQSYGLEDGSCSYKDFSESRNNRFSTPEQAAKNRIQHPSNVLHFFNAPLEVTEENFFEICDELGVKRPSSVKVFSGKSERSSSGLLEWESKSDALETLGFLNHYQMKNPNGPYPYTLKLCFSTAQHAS
As to conditions: 20 nM protein, 1.5 uM RNA pool; 20 mM HEPES pH 7.8, 70 mM KCl, 10 mM NaCl, 10% glycerol, 2 mM DTT, 0.1 ug/uL BSA; 30 min, 4 C (protocol of this paper; not …); cited from earlier work.

Series [7] deals with T5, grld-1 (Caenorhabditis elegans) (UniProt H2KYB8).
T5 sequence: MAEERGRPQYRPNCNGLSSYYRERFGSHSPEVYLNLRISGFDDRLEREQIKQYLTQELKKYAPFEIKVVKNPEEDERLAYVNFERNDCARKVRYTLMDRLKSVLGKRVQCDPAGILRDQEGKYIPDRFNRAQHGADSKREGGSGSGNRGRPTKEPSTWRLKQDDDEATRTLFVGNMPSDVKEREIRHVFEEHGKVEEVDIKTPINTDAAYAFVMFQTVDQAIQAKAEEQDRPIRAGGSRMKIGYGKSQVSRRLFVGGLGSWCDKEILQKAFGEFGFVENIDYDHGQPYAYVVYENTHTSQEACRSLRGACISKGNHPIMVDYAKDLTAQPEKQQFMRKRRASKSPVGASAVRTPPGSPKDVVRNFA
As to conditions: 20 nM protein, 1.5 uM RNA pool; 20 mM HEPES pH 7.8, 70 mM KCl, 10 mM NaCl, 10% glycerol, 2 mM DTT, 0.1 ug/uL BSA; 30 min, 4 C.

Series [8] addresses T6, snrpB2 (Dictyostelium discoideum) (UniProt Q54J05).
T6 sequence: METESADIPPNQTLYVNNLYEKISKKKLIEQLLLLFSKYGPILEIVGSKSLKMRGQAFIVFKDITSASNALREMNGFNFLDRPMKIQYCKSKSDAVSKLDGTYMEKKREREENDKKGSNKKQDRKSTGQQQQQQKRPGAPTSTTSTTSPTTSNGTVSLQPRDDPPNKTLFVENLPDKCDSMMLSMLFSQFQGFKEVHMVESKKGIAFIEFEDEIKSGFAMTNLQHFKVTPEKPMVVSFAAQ
As to conditions: 20 nM protein, 1.5 uM RNA pool; 20 mM HEPES pH 7.8, 70 mM KCl, 10 mM NaCl, 10% glycerol, 2 mM DTT, 0.1 ug/uL BSA; 30 min, 4 C.

Series [9] deals with T7, rnp-3 (Caenorhabditis elegans) (UniProt Q21323).
T7 sequence: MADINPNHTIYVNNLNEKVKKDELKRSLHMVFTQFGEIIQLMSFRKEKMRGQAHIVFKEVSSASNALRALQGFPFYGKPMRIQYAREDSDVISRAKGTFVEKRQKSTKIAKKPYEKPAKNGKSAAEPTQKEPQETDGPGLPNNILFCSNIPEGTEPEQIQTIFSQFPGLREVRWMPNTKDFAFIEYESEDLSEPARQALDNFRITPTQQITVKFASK
As to conditions: 20 nM protein, 1.5 uM RNA pool; 20 mM HEPES pH 7.8, 70 mM KCl, 10 mM NaCl, 10% glycerol, 2 mM DTT, 0.1 ug/uL BSA; 30 min, 4 C.

Sequence of fmr1 (Xenopus tropicalis) (Q6GLC9 170-401): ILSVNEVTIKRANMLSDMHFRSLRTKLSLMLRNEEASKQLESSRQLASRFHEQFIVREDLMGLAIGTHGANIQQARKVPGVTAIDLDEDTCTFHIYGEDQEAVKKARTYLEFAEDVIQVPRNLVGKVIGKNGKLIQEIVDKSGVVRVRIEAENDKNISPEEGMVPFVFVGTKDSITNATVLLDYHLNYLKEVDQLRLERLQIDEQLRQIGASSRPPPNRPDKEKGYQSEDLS

Consider AAAAAA [RNAcompete motif RNCMPT00471], for which the binding signal (z-score (mean of top ten 7-mers)) in series [1] was determined as 12.5.

Sequence AAAAAA [RNAcompete motif RNCMPT00501] showed a binding signal (z-score (mean of top ten 7-mers)) in series [2] of 8.02. AAAAAAA [RNAcompete motif RNCMPT00508] came in with a binding signal (z-score (mean of top ten 7-mers)) in series [3] of 14.8. On to AAAAAAG [RNAcompete motif RNCMPT00511], for which, in [4], the binding signal (z-score (mean of top ten 7-mers)) turned out to be 13.4.

In the case of AAGACAA [RNAcompete motif RNCMPT00474], in [5], the binding signal (z-score (mean of top ten 7-mers)) is 6.01. Consider ACACACAA [RNAcompete motif RNCMPT00027], for which the binding signal (z-score (mean of top ten 7-mers)) in [6] was 8.6.

Sequence ACUACUA [RNAcompete motif RNCMPT00509] had a binding signal (z-score (mean of top ten 7-mers)) in [7] of 8.74. On to AGCAC [RNAcompete motif RNCMPT00507], for which the binding signal (z-score (mean of top ten 7-mers)) in series [8] turned out to be 12.9. The sequence AGCACGG [RNAcompete motif RNCMPT00510] showed a binding signal (z-score (mean of top ten 7-mers)) in [9] of 14.1.
